# Experimental data from US20200062847A1 (XIANGTAN TENGHUA BIOSCIENCE, published 2020).
# T1: mouse PD-1 (mouse, UniProt Q02242 25-167, limits assumed)
# T1 sequence (looked up): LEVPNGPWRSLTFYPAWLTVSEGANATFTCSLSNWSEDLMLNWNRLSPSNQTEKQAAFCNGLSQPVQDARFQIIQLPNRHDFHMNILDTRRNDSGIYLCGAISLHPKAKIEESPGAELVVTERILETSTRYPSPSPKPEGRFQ
# Key:
# [1] = target: T1, mouse PD-1; test: ELISA
# [2] = target: T2, recombinant human PD-1 (human, UniProt Q15116 25-167, limits assumed); test: SPR (Biacore), antibody captured via anti-human IgG
# T2 construct: also called human PD-1 protein; soluble PD-1
# Procedure: This technology allows the label-free determination of the microscopic rate constants for binding (kₐ) and dissociation (kd) of a ligand to a receptor. […] The kinetic traces were evaluated with the Biacore™ T2000. The full set of these traces with increasing concentrations is taken together and is called a run. Two zero concentration samples (blank runs) were included in each analyte concentration series to allow double-referencing during data evaluation. The kinetic rate constants for association (kₐ) and dissociation (kd) as well as the dissociation equilibrium constant (KD) were calculated.
# [3] = target: T2, recombinant human PD-1; test: competition ELISA on coated human PD-1, antibody titrated against 50 ng/ml Nivolumab as competitor; EC50 estimated at half-maximal absorbance
# Procedure: The assay was conducted essentially as follows. […] HRP-conjugated anti-human antibody was added and incubated.
# T2 sequence (Q15116 25-167 limits assumed): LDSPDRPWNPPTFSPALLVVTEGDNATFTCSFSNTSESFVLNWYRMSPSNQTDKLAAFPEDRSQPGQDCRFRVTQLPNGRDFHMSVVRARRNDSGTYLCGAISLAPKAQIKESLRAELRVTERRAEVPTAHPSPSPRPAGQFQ
binding result [1],koff [2],kon [2],EC50 [3],Binder
no binding,,,,"Abs-r-924 (antibody, V domains shown, Rabbit recombinant antibody expressed in HEK293; also called rabbit anti-human-PD-1 recombinant antibody Abs-r-924) VH: QESVKESGGGLVKPGDTLTLTCKVSGFSISSYGMHWVRQAPGKGLEWIGVISYDGSNKYYADSVKGRFTISRNTNQNTVTLKMTSLTADDTATYFCARYYYYYGMDVWGQGTLVTVSS VL: EIVLTQTPSSVSAAVGSTVTINCRGSQSLSSYLAWYQQKPGQRPKLLIYDVSNRATGVPRRFKGSGSGTQFTLTISGVQADDAATYYCQQRTNWPRAFGGGTKVDVKG"
,7.9e-06 s⁻¹,1.15e+06 M⁻¹ s⁻¹,0.41 nM,"Abs-h-923 (antibody, V domains shown) VH: QVQLVQSGAEVKKPGASVKVSCKASGYTFTSYAMHWVRQAPGQRLEWMGWSNAGNGNTKYSQEFQGRVTITRDTSASTAYMELSSLRSEDMAVYYCARYWYFDLWGRGTLVTVSS VL: EIALTQSPATLSLSPGERATLSCRASQSGSSFVAWYQQKPGQAPRLLIYANNKRETGIPARFSGSGSGTDFTLTISSLEPEDFAVYYCGTYTDSPPTFGQGTKVEIKR"
,3.9e-06 s⁻¹,1.22e+06 M⁻¹ s⁻¹,0.14 nM,"Abs-h-924 (antibody, V domains shown, also called humanized anti-human-PD-1 recombinant antibody Abs-h-924) VH: QVQLVESGGGVVQPGRSLRLSCAASGFTFSSYGMHWVRQAPGKGLEWVAVISYDGSNKYYADSVKGRFTISRDNSKNTLYLQMNSLRAEDTAVYYCARYYYYYGMDVWGQGTTVTVSS VL: EIVLTQSPATLSLSPGERATISCRGSQSLSSYLAWYQQRPGQAPRLLIYDVSNRATGIPARFSGSGSGTDFTLTISGLEPEDFAVYYCQQRTNWPRAFGQGTKVEIKR"
,3.2e-06 s⁻¹,1.19e+06 M⁻¹ s⁻¹,0.15 nM,"Abs-h-925 (antibody, V domains shown, also called humanized anti-human-PD-1 recombinant antibody Abs-h-925) VH: QVQLVDSGGGVVQPGRSLRLSCAASAFTFSSYAMHWVRQAPGKGLEWVAVISYDGSNKYYADSVKGRFTISRDNSKNTLYLQMNSLRAEDTAVYYCARYYYYYYMDVWGKGTTVTVSS VL: EIVLTQSPATLSLSPGERATLSCRASQSVSSYLAWYQQKPGQAPRLLIYEASNRATGIPARFSGSGSGTDFTLTISSLEPEDFAVYYCQQRTNWPPAFGQGTKVEIKR"
